{"source": "patent US20250027114", "key": {"[1]": {"tested_on": "T1, E2-12-ABE8e (Neisseria meningitidis)", "T1 sequence": "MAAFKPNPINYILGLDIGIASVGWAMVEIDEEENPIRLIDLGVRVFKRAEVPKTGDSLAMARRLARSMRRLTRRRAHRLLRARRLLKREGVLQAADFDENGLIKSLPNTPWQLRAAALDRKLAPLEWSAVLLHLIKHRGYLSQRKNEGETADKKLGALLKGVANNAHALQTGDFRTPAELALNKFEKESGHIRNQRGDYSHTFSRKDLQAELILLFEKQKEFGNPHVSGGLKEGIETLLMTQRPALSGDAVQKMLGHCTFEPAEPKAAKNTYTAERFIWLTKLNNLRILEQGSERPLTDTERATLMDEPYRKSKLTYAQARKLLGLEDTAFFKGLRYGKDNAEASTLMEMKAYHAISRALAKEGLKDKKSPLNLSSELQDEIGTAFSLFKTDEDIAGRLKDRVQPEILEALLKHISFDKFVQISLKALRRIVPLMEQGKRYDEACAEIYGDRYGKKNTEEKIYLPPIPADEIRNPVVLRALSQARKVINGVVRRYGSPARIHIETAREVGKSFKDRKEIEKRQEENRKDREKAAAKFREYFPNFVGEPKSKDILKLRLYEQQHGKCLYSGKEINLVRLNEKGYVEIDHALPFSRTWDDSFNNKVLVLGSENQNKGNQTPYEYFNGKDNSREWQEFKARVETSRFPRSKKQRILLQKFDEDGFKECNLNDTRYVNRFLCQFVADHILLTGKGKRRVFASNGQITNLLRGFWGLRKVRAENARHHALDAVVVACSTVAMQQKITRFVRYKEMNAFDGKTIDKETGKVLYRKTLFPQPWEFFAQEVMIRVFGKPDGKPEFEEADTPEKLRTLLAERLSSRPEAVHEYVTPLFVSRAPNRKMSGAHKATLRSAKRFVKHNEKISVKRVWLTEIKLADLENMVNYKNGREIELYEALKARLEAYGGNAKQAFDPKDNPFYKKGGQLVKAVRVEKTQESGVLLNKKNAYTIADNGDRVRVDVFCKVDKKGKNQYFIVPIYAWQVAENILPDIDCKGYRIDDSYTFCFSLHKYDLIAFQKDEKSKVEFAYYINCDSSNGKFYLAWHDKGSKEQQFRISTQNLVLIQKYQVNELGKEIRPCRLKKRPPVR", "assay": "cell_activity", "details": "PAM N4YNC average, E. coli ABE-PPA; 33% on N4YND"}, "[2]": {"tested_on": "T2, eNme2-C-dABE8e (Neisseria meningitidis)", "T2 sequence": "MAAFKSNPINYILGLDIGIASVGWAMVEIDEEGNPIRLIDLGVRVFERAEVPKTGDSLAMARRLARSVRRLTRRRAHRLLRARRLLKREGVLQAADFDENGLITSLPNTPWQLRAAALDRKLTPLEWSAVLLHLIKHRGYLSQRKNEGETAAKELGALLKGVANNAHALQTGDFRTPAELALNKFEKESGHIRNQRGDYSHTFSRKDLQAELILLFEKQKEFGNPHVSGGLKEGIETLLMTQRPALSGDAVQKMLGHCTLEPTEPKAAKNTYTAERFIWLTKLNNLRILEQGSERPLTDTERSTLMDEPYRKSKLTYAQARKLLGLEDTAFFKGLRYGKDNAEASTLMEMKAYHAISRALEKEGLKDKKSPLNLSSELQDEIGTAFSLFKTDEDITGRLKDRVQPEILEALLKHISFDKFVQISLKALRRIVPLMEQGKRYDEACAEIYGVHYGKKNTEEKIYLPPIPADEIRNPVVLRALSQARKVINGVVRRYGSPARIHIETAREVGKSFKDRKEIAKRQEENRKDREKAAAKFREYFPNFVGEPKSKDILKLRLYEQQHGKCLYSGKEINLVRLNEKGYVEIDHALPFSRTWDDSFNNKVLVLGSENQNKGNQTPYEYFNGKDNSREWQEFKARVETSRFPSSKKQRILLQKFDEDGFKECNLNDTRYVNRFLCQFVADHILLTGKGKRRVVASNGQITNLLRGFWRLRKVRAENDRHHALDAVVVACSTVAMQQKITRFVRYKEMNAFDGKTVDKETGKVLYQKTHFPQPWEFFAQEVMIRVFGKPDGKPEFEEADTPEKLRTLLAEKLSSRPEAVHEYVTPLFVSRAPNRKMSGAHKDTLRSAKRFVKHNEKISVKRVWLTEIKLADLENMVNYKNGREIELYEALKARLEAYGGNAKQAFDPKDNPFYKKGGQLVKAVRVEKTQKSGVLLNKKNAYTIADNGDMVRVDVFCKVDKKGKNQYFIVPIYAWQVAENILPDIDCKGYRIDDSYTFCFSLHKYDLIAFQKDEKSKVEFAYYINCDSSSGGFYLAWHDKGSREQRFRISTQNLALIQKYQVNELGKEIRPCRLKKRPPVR", "assay": "cell_activity", "details": "all N4CN PAMs, E. coli ABE-PPA"}}, "data": [{"sequence": "AUGGCCCAGACUGAGCACGUGAGGUUGUAGCUCCCUUUCUCAUUUCGGAAACGAAAUGAGAACCGUUGCUACAAUAAGGCCGUCUGAAAAGAUGUGCCGCAACGCUCUGCCCCUUAAAGCUUCUGCUUUAAGGGGCAUCGUUUA / ATGGCCCAGACTGAGCACGTGA / TCACGTGCTCAGTCTGGGCCAT [ABE-PPA sgRNA ; ABE-PPA protospacer library target]", "values": [{"measurement": "activity (% A-to-G conversion)", "setting": "[1]", "value": 58}, {"measurement": "activity (% A-to-G conversion)", "setting": "[2]", "value": "> 80"}]}]}
